From PMC10154249, “Unique progerin C-terminal peptide ameliorates Hutchinson–Gilford progeria syndrome phenotype by rescuing BUBR1” (Nature Aging, 2023)

Molecular target: T1, Flag-BUBR1 (human, UniProt O60566 1-1050)
T1 construct: also called Flag beads-BUBR1; source: eluted with 3×Flag peptide for MST, left on Flag beads for the pull-down
Experiment: pull-down; 10 μg purified His-UPCP incubated with Flag beads, Flag beads-BUBR1 or Flag beads-PTBP1 for 16 h at 4 °C; beads washed three times with PBS
Details: both partners purified

T1 sequence (O60566 whole entry): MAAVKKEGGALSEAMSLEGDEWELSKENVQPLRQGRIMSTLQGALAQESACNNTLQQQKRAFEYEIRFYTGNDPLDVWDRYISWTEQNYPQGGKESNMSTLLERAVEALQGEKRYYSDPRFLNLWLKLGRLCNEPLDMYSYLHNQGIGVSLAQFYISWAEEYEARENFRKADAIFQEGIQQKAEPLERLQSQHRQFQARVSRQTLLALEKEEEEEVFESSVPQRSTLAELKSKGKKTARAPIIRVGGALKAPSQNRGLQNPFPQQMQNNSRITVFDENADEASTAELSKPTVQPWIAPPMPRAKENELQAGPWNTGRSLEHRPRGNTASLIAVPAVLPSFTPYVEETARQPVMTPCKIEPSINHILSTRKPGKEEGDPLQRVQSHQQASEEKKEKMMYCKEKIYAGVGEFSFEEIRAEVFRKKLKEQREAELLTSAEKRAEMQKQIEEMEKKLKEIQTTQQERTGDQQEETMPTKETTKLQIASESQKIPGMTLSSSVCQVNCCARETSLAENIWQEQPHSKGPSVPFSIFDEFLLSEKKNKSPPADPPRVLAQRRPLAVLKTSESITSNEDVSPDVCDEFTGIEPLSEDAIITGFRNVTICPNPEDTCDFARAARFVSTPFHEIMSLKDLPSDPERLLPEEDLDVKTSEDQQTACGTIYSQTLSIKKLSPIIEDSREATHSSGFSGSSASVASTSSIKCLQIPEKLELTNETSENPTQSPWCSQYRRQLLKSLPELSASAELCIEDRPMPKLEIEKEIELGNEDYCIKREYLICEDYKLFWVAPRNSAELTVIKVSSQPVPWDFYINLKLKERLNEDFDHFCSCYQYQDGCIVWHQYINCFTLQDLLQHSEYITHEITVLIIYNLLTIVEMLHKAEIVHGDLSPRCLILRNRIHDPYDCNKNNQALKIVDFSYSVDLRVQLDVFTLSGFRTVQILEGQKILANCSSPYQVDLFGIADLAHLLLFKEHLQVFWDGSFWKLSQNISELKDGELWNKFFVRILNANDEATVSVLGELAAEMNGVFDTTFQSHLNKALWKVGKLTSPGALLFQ

B1: His-UPCP (peptide)
chain: YGRKKRRQRRRYNLRSRTVLCGTCGQPADKASASGSGAQSPQNCSIM
notes: also called His-tagged UPCP
binding result: binds
